Measured values from patent US20230398218A1 (published 2023).
Like-named read-outs stand apart in the source and are kept apart here. Each block holds one binder with its values, some of them ahead of it.

What was measured:
HLA-B08.01 [1] = molecular target: HLA-B08.01 (human); assay: pMHC-I complex dissociation at 37 C, radiolabeled b2m
HLA-A02.01 [2] = molecular target: HLA-A02.01 (human); assay: as above
HLA-A02.01 [3] = molecular target: HLA-A02.01 (human); assay: competition with radiolabeled reference peptide on prepared MHC class I
HLA-B08.01 [4] = molecular target: HLA-B08.01 (human); assay: pMHC-I complex dissociation at 37 C, radiolabeled b2m; remark: listed apart in the source
HLA-A01.01 [5] = molecular target: T1, HLA-A01.01 (human); assay: as above
T1 construct: in the stability assay the heavy chain is biotinylated and b2m iodine-labeled

HLA-A03.01 [6] = molecular target: HLA-A03.01 (human); assay: as above
HLA-A01.01 [7] = molecular target: T1, HLA-A01.01; assay: competition with radiolabeled reference peptide on prepared MHC class I
HLA-A03.01 [8] = molecular target: HLA-A03.01 (human); assay: as above
HLA-A11.01 = HLA-A11.01 (human); assay: as above
HLA-A24.02 [9] = molecular target: HLA-A24.02 (human); assay: pMHC-I complex dissociation at 37 C, radiolabeled b2m
HLA-A24.02 [10] = molecular target: HLA-A24.02 (human); assay: competition with radiolabeled reference peptide on prepared MHC class I
HLA-B08.01 [11] = molecular target: HLA-B08.01 (human); assay: as above
[12] = molecular target: T2, HLA-A*03:01 expressed in 293T or SW620 cells (human); assay: targeted MS/MS (PRM) of peptides eluted from HLA-peptide complexes, 293T cells
T2 construct: whole, on cells; HLA of cells from which peptides were eluted for MS/MS
Method: To assess whether antigens could be processed and presented from the larger polypeptide context, peptides eluted from HLA molecules isolated from cells expressing the genes of interest were analyzed by tandem mass spectrometry (MS/MS).
For analysis of presentation of RAS neoantigens, cell lines were utilized that have RAS mutations naturally or were lentivirally transduced to express the mutated RAS gene. HLA molecules were either isolated based on the natural expression of the cell lines or the cell lines were lentivirally transduced or transiently transfected to express the HLA of interest. […] Eluted peptides were then analyzed by targeted MS/MS with parallel reaction monitoring (PRM).

Binder: MQLMPFGCLL
Stability (half-life (hr.)) (HLA-B08.01 [1]): 0 h

Binder: MQLMPFGCL
Stability (half-life (hr.)) (HLA-B08.01 [1]): 0 h

Binder: LIMQLMPFGC
Stability (half-life (hr.)) (HLA-A02.01 [2]): 22.9 min
Affinity (HLA-A02.01 [3]): 132 nM

Binder: MANGSLLNYL
Stability (half-life (hr.)) (HLA-B08.01 [4]): 0 h

Binder: VQLIMQLMPF (also called VOLIMQLMPF)
Stability (half-life (hr.)) (HLA-B08.01 [1]): 0 h

Binder: QLIMQLMPF
Stability (half-life (hr.)) (HLA-B08.01 [1]): 0 h

Binder: SLLNYLREM
Stability (half-life (hr.)) (HLA-B08.01 [4]): 0 h
Affinity (HLA-B08.01 [11]): 960 nM

Next, values leading:

Stability (half-life (hr.)) (HLA-A01.01 [5]): 13 min
Stability (half-life (hr.)) (HLA-A03.01 [6]): 14.3 min
Affinity (HLA-A01.01 [7]): 439 nM
Affinity (HLA-A03.01 [8]): 35.6 nM
Affinity (HLA-A11.01): 536 nM
Binder: MANGSLLNY (also called BTK, C481S peptide)

Stability (half-life (hr.)) (HLA-A24.02 [9]): 343 min
Affinity (HLA-A24.02 [10]): 4.96 nM
Binder: EYMANGSLL (also called BTK, C481S peptide)

Stability (half-life (hr.)) (HLA-A01.01 [5]): 52 min
Stability (half-life (hr.)) (HLA-A03.01 [6]): 16.7 min
Affinity (HLA-A01.01 [7]): 13.2 nM
Affinity (HLA-A03.01 [8]): 95.9 nM
Affinity (HLA-A11.01): 974 nM
Binder: YMANGSLLNY (also called BTK, C481S peptide)

Stability (half-life (hr.)) (HLA-B08.01 [1]): 0 h
Binder: IMQLMPFGCL

binding result [12]: binds
B1: VVVGAVGVGK (peptide)
peptide: VVVGAVGVGK
notes: Endogenously processed RAS G12V peptide eluted from HLA-peptide complexes
